Consider one protein from paper PMC4159567, “Aggregation-prone c9FTD/ALS poly(GA) RAN-translated proteins cause neurotoxicity by inducing ER stress” (Acta Neuropathologica, 2014).

This series concerns the molecule itself. As to the kind of experiment: gel and Western blot of high molecular weight species; purified recombinant GST-(GA)50 beside GST alone (Online Resource 1a); samples heated in Laemmli's buffer. (In general: In western blotting, separated proteins are transferred to a membrane and probed.)

B1: recombinant GST-(GA)50 protein (other, human)
chain: GAGAGAGAGAGAGAGAGAGAGAGAGAGAGAGAGAGAGAGAGAGAGAGAGAGAGAGAGAGAGAGAGAGAGAGAGAGAGAGAGAGAGAGAGAGAGAGAGAGA
notes: poly(GA) c9RAN dipeptide repeat, 50 repeats; (GA)50 cDNA in pGEX-6P-1 (BamHI/XhoI); RAN-translated from the G4C2 repeat of C9ORF72, not part of the C9ORF72 protein; also called poly(GA); source: E. coli Rosetta(DE3)pLysS, purified (Glutathione Sepharose 4B, eluted with glutathione, dialysed); not shown: GST, N-terminal, kept
Take B1: the binding result is reported as “binds”.
